PMC9873573, “Cryo-EM structure of the respiratory I + III2 supercomplex from Arabidopsis thaliana at 2 Å resolution” (Nature Plants, 2022)

B1: complex I subunit B14.7 (natural protein, UniProt O48528 1-159, looked up)
chain: MDPAEMRYLEEEDGPLMKTIKGSITGFGAGTIYGTILATWKDVPRVERNVALPGLIRTLKMMGTHGLTFAAIGGVYIGVEQLVQNFRSKRDFYNGAIGGFVAGASVLGYRARSIPTAIAAGATLAVTSALIDSGGQTTRVDNGREYYPYTVEKRAEADS
notes: subunit B14.7 of Arabidopsis thaliana mitochondrial complex I (membrane arm); absent from the earlier structures of free plant complex I; also called B14.7 kDa subunit

What was measured:
[1] = target: T1, complex I, FMN / NADH site (51 kDa subunit), in the I + III2 supercomplex (Arabidopsis thaliana, UniProt Q9FNN5); test: cryo-EM structure, […] Å; format: binding; conditions: co-purified
T1 construct: gene At5g08530; native supercomplex; tested as whole I + III2 assembly of 68 subunits
T1 sequence (Q9FNN5 31-486): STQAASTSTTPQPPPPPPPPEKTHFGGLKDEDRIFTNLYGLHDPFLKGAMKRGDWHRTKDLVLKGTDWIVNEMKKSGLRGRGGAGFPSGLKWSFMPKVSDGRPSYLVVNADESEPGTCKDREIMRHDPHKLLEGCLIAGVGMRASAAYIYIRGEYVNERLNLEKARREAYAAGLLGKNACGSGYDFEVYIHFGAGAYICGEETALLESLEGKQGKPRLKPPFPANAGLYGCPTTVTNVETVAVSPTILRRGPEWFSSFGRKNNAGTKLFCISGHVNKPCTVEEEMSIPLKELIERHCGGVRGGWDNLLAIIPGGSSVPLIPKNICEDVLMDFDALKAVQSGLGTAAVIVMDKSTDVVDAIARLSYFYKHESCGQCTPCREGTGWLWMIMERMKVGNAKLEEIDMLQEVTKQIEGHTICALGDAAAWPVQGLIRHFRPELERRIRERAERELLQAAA

[2] = target: T2, complex I core subunit ND5 (Arabidopsis thaliana (endogenous in …, UniProt P29388 1-669)); test: cryo-EM structure; native I + III2 supercomplex isolated from digitonin-solubilised Arabidopsis mitochondria (sucrose gradient, Superose 6 in GDN); 30 mM Tris-HCl pH 7.4, 60 mM NaCl, 0.02% GDN; 2.36 Å for the whole supercomplex, 2.03 Å after multibody refinement, 1.9 Å after density modification; conditions: both partners purified
T2 sequence (looked up): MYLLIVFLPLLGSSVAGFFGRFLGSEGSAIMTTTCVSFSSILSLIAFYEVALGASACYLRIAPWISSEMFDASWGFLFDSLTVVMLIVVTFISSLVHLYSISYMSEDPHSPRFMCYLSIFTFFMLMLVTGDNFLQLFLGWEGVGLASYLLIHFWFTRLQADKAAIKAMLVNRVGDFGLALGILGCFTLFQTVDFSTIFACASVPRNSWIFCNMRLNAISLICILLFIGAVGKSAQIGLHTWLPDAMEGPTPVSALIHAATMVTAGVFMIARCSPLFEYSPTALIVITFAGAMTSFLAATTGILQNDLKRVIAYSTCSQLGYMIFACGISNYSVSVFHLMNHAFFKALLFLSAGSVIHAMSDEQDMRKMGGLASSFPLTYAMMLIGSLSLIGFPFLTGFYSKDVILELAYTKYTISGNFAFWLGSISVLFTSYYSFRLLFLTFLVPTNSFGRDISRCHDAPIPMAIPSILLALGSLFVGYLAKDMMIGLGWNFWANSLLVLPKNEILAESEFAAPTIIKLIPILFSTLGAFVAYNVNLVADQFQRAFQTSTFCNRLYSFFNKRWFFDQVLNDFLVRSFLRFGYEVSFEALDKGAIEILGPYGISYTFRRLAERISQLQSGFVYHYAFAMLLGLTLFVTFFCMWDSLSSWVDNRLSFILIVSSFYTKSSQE

[3] = target: B1; test: as above; conditions: both partners purified
[4] = target: T3, mitochondrial processing peptidase subunit MPP-β of complex III (Arabidopsis thaliana (endogenous in …, UniProt Q42290 79-531)); test: as above; conditions: both partners purified
T3 construct: MPP-β, subunit of Arabidopsis thaliana complex III
T3 sequence (looked up): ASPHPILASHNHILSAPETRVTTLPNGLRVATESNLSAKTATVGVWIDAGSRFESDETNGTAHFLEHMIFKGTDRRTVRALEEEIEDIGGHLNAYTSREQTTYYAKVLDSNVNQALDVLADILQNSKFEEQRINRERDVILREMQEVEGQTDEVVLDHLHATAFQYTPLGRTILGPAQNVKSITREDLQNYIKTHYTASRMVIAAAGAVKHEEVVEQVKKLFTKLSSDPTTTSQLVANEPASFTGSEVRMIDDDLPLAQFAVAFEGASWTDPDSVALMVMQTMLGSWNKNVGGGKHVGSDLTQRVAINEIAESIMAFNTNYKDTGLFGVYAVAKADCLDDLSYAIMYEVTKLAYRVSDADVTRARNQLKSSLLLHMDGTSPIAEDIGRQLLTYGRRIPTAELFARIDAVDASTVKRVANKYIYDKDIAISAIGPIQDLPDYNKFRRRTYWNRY

[5] = target: T4, mitochondrial processing peptidase subunit MPP-α-1 of complex III (Arabidopsis thaliana (endogenous in …, UniProt Q9ZU25 60-503)); test: as above; conditions: both partners purified
T4 construct: MPP-α, isoform 1 (the dominant isoform, fitted to the map), subunit of Arabidopsis thaliana complex III
T4 sequence (looked up): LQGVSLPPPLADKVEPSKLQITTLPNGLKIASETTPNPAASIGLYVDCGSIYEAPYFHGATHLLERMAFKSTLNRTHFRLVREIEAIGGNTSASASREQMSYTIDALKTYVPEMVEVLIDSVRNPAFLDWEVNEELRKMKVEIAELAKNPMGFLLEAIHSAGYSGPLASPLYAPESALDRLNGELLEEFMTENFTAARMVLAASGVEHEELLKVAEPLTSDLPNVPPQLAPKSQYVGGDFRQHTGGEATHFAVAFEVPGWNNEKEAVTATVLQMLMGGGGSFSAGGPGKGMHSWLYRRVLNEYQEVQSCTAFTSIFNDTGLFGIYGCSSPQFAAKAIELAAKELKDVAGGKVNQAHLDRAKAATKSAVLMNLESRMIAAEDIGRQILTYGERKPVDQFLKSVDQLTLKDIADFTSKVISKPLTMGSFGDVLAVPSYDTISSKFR

Q: `Cc1cc2nc3c(=O)[nH]c(=O)nc-3n(C[C@H](O)[C@H](O)[C@H](O)COP(=O)(O)O)c2cc1C` [FMN] was tested. Which “cryo-EM structure, 2 Å” value [1] did it give?
A: Complex I: FMN (Flavin mononucleotide), N1a, N1b, N2, N3

Q: Does B1 bind [2]?
A: binds

B2: complex III subunit QCR6-1 (natural protein, UniProt Q0WWE3 1-69, looked up)
chain: MADDEVVDPKKYLEESCKPKCVKPLLEYQACVKRIQGDDSGHKHCTGQYFDYWQCIDKCVAPKLFAKLK
notes: QCR6, isoform 1 (the dominant isoform, fitted to the map), accessory subunit of Arabidopsis thaliana complex III
Q: Does B2 bind [3]?
A: binds

B3: complex III subunit QCR8-1 (natural protein, UniProt Q9SG91 1-72, looked up)
chain: MGKQPVKLKAVVYALSPFQQKIMTGLWKDLPEKIHHKVSENWISATLLVTPVVGTYWYAQYFKEQEKLEHRF
notes: QCR8, isoform 1 (the dominant isoform, fitted to the map), accessory subunit of Arabidopsis thaliana complex III
Q: Does B3 bind [3]?
A: binds

B4: complex I subunit B22 (natural protein, UniProt Q945M1 1-117, looked up)
chain: MSGVSTAAYFARRAAQKERVRILYRRALKDTLNWAVHRHIFYRDASDLREKFNVNQDVEDVDRIDKLIAHGEAEYNKWRHPDPYIVPWAPGGSKFCRNPTPPAGIEIVYNYGLEDNP
notes: accessory subunit B22 of Arabidopsis thaliana mitochondrial complex I (membrane arm)
Q: Which results are given for B4?
A: binding result [4]: binds; binding result [5]: binds
